Reference: the supplement of paper PMC9116672
± gives the standard deviation of the averaged measurements or the uncertainty stated by the source.

Experiments:
[1] = duplex melting temperature (HRM, EvaGreen); higher = more stable duplex
Protocol: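 Listed DNA strand annealed 1:1 with its complementary strand (95 °C 5 min, 0.1 °C/s to 20 °C). Melted in 1x NNE buffer (500 mM NaCl, 10 mM Na2HPO4, 1 mM EDTA, pH 7.0) with 1x EvaGreen on a LightCycler96 (37 to 97 °C, 0.1 °C/s). Tm is the peak of -dF/dT at the stated total duplex concentration; 4 replicates are averaged. PS oligos are non-stereospecific (Rp/Sp mixtures).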

[2] = duplex formation free energy ΔG50 (Van't Hoff fit of HRM Tm); higher = less stable duplex; settings: temperature for dG: 50 °C, NaCl: 500 mM (unadjusted)
Protocol: (§1)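 Duplex of the listed DNA strand with its complement, in 1x NNE buffer (500 mM NaCl, pH 7.0) with 1x EvaGreen. ΔH and ΔS come from a Van't Hoff linear fit of 1/Tm against ln(CT/4) over 1-20 uM, using HRM Tm values.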

[3] = duplex formation enthalpy ΔH (Van't Hoff fit of HRM Tm); higher = less exothermic duplex formation; settings: temperature for dG: 50 °C, NaCl: 500 mM (unadjusted)
Protocol: as §1

[4] = duplex formation entropy ΔS (Van't Hoff fit of HRM Tm); higher = smaller entropy loss on duplex formation; settings: temperature for dG: 50 °C, NaCl: 500 mM (unadjusted)
Protocol: as §1

[5] = duplex concentration 1 µM, backbone: PS-PS (both strands fully phosphorothioate)
[6] = duplex concentration 2.5 µM, backbone: PO-PO (both strands phosphodiester DNA)
[7] = duplex concentration 2.5 µM, backbone: PS-PO (listed strand fully phosphorothioate, complement phosphodiester)
[8] = duplex concentration 2.5 µM, backbone: PS-PS (both strands fully phosphorothioate)
[9] = duplex concentration 5 µM, backbone: PO-PO (both strands phosphodiester DNA)
[10] = duplex concentration 5 µM, backbone: PS-PO (listed strand fully phosphorothioate, complement phosphodiester)
[11] = duplex concentration 5 µM, backbone: PS-PS (both strands fully phosphorothioate)
[12] = duplex concentration 7.5 µM, backbone: PO-PO (both strands phosphodiester DNA)
[13] = duplex concentration 7.5 µM, backbone: PS-PO (listed strand fully phosphorothioate, complement phosphodiester)
[14] = duplex concentration 7.5 µM, backbone: PS-PS (both strands fully phosphorothioate)
[15] = duplex concentration 10 µM, backbone: PO-PO (both strands phosphodiester DNA)
[16] = duplex concentration 10 µM, backbone: PS-PO (listed strand fully phosphorothioate, complement phosphodiester)
[17] = duplex concentration 10 µM, backbone: PS-PS (both strands fully phosphorothioate)
[18] = duplex concentration 15 µM, backbone: PO-PO (both strands phosphodiester DNA)
[19] = duplex concentration 15 µM, backbone: PS-PO (listed strand fully phosphorothioate, complement phosphodiester)
[20] = duplex concentration 15 µM, backbone: PS-PS (both strands fully phosphorothioate)
[21] = duplex concentration 20 µM, backbone: PO-PO (both strands phosphodiester DNA)
[22] = duplex concentration 20 µM, backbone: PS-PO (listed strand fully phosphorothioate, complement phosphodiester)
[23] = duplex concentration 20 µM, backbone: PS-PS (both strands fully phosphorothioate)
[24] = backbone: PO-PO (both strands phosphodiester DNA)
[25] = backbone: PS-PO (listed strand fully phosphorothioate, complement phosphodiester)
[26] = backbone: PS-PS (both strands fully phosphorothioate)
[27] = duplex concentration 1 µM, backbone: PO-PO (both strands phosphodiester DNA)
[28] = duplex concentration 1 µM, backbone: PS-PO (listed strand fully phosphorothioate, complement phosphodiester)

## CAAGCCTCGATTTTGT
[1]; [5]
  duplex melting temperature: 46.56 ± 0.31 °C
[1]; [6]
  duplex melting temperature: 64.39 ± 0.47 °C
[1]; [7]
  duplex melting temperature: 56.69 ± 0.17 °C
[1]; [8]
  duplex melting temperature: 50.11 ± 0.18 °C
[1]; [9]
  duplex melting temperature: 66.83 ± 0.17 °C
[1]; [10]
  duplex melting temperature: 58.85 ± 0.28 °C
[1]; [11]
  duplex melting temperature: 52.41 ± 0.077 °C
[1]; [12]
  duplex melting temperature: 68.04 ± 0.08 °C
[1]; [13]
  duplex melting temperature: 60.19 ± 0.34 °C
[1]; [14]
  duplex melting temperature: 53.632 ± 0.045 °C
[1]; [15]
  duplex melting temperature: 68.83 ± 0.17 °C
[1]; [16]
  duplex melting temperature: 60.95 ± 0.27 °C
[1]; [17]
  duplex melting temperature: 54.55 ± 0.083 °C
[1]; [18]
  duplex melting temperature: 70.12 ± 0.2 °C
[1]; [19]
  duplex melting temperature: 62.25 ± 0.24 °C
[1]; [20]
  duplex melting temperature: 55.802 ± 0.033 °C
[1]; [21]
  duplex melting temperature: 71.17 ± 0.15 °C
[1]; [22]
  duplex melting temperature: 63.14 ± 0.43 °C
[1]; [23]
  duplex melting temperature: 56.6 ± 0.35 °C
[2]; [24]
  duplex formation free energy ΔG50: -12.29 ± 0.11 kcal/mol
[2]; [25]
  duplex formation free energy ΔG50: -10.63 ± 0.052 kcal/mol
[2]; [26]
  duplex formation free energy ΔG50: -9.148 ± 0.028 kcal/mol
[3]; [24]
  duplex formation enthalpy ΔH: -72.5 ± 2.1 kcal/mol
[3]; [25]
  duplex formation enthalpy ΔH: -71.3 ± 1.6 kcal/mol
[3]; [26]
  duplex formation enthalpy ΔH: -63.1 ± 2.1 kcal/mol
[4]; [24]
  duplex formation entropy ΔS: -186 ± 6 cal/mol/K
[4]; [25]
  duplex formation entropy ΔS: -188 ± 4.9 cal/mol/K
[4]; [26]
  duplex formation entropy ΔS: -167 ± 6.5 cal/mol/K

## AGACATCCCATACGAGCATCCA
[1]; [27]
  duplex melting temperature: 74.67 ± 0.5 °C
[1]; [28]
  duplex melting temperature: 67.6 ± 0.69 °C
[1]; [5]
  duplex melting temperature: 58.4 ± 0.91 °C
[1]; [6]
  duplex melting temperature: 75.64 ± 0.58 °C
[1]; [7]
  duplex melting temperature: 69.1 ± 0.53 °C
[1]; [8]
  duplex melting temperature: 60.9 ± 0.71 °C
[1]; [9]
  duplex melting temperature: 77.03 ± 0.46 °C
[1]; [10]
  duplex melting temperature: 70.2 ± 0.62 °C
[1]; [11]
  duplex melting temperature: 62.6 ± 0.4 °C
[1]; [12]
  duplex melting temperature: 78.03 ± 0.27 °C
[1]; [13]
  duplex melting temperature: 71.19 ± 0.51 °C
[1]; [14]
  duplex melting temperature: 63.56 ± 0.19 °C
[1]; [15]
  duplex melting temperature: 79.049 ± 0.057 °C
[1]; [16]
  duplex melting temperature: 71.87 ± 0.23 °C
[1]; [17]
  duplex melting temperature: 64.391 ± 0.055 °C
[1]; [18]
  duplex melting temperature: 79.985 ± 0.077 °C
[1]; [19]
  duplex melting temperature: 72.68 ± 0.15 °C
[1]; [20]
  duplex melting temperature: 65.3 ± 0.086 °C
[1]; [21]
  duplex melting temperature: 80.728 ± 0.069 °C
[1]; [22]
  duplex melting temperature: 73.314 ± 0.051 °C
[1]; [23]
  duplex melting temperature: 65.89 ± 0.11 °C
[2]; [24]
  duplex formation free energy ΔG50: -17.5 ± 0.61 kcal/mol
[2]; [25]
  duplex formation free energy ΔG50: -16.1 ± 0.3 kcal/mol
[2]; [26]
  duplex formation free energy ΔG50: -12.13 ± 0.08 kcal/mol
[3]; [24]
  duplex formation enthalpy ΔH: -112 ± 7.7 kcal/mol
[3]; [25]
  duplex formation enthalpy ΔH: -124 ± 4.9 kcal/mol
[3]; [26]
  duplex formation enthalpy ΔH: -90.8 ± 2 kcal/mol
[4]; [24]
  duplex formation entropy ΔS: -292 ± 22 cal/mol/K
[4]; [25]
  duplex formation entropy ΔS: -333 ± 14 cal/mol/K
[4]; [26]
  duplex formation entropy ΔS: -243 ± 6 cal/mol/K

## TACTTCCAACGTAGG
[1]; [28]
  duplex melting temperature: 49.1 °C
[1]; [5]
  duplex melting temperature: 45.032 ± 0.023 °C
[1]; [6]
  duplex melting temperature: 59.72 ± 0.33 °C
[1]; [7]
  duplex melting temperature: 51.72 ± 0.075 °C
[1]; [8]
  duplex melting temperature: 45.59 ± 0.28 °C
[1]; [9]
  duplex melting temperature: 62 ± 0.17 °C
[1]; [10]
  duplex melting temperature: 55.02 ± 0.098 °C
[1]; [11]
  duplex melting temperature: 47.2 ± 0.46 °C
[1]; [12]
  duplex melting temperature: 63.52 ± 0.17 °C
[1]; [13]
  duplex melting temperature: 56.5 ± 0.21 °C
[1]; [14]
  duplex melting temperature: 48.26 ± 0.23 °C
[1]; [15]
  duplex melting temperature: 64.46 ± 0.077 °C
[1]; [16]
  duplex melting temperature: 57.42 ± 0.17 °C
[1]; [17]
  duplex melting temperature: 49.7 ± 0.78 °C
[1]; [18]
  duplex melting temperature: 66.07 ± 0.095 °C
[1]; [19]
  duplex melting temperature: 58.63 ± 0.099 °C
[1]; [20]
  duplex melting temperature: 50.85 ± 0.34 °C
[1]; [21]
  duplex melting temperature: 67.22 ± 0.12 °C
[1]; [22]
  duplex melting temperature: 59.46 ± 0.12 °C
[1]; [23]
  duplex melting temperature: 51.9 ± 0.73 °C
[2]; [24]
  duplex formation free energy ΔG50: -10.98 ± 0.06 kcal/mol
[2]; [25]
  duplex formation free energy ΔG50: -9.629 ± 0.064 kcal/mol
[3]; [24]
  duplex formation enthalpy ΔH: -62.5 ± 1.4 kcal/mol
[3]; [25]
  duplex formation enthalpy ΔH: -61.3 ± 3 kcal/mol
[4]; [24]
  duplex formation entropy ΔS: -159 ± 4.2 cal/mol/K
[4]; [25]
  duplex formation entropy ΔS: -160 ± 9.1 cal/mol/K

## TGCCATGTTGAAAACC
[1]; [27]
  duplex melting temperature: 61.32 ± 0.21 °C
[1]; [5]
  duplex melting temperature: 44.3 ± 0.54 °C
[1]; [6]
  duplex melting temperature: 63.56 ± 0.48 °C
[1]; [7]
  duplex melting temperature: 56.23 ± 0.2 °C
[1]; [8]
  duplex melting temperature: 46.98 ± 0.17 °C
[1]; [9]
  duplex melting temperature: 65.51 ± 0.22 °C
[1]; [10]
  duplex melting temperature: 58.37 ± 0.066 °C
[1]; [11]
  duplex melting temperature: 48.71 ± 0.25 °C
[1]; [12]
  duplex melting temperature: 66.6 ± 0.21 °C
[1]; [13]
  duplex melting temperature: 59.53 ± 0.1 °C
[1]; [14]
  duplex melting temperature: 49.82 ± 0.18 °C
[1]; [15]
  duplex melting temperature: 67.59 ± 0.15 °C
[1]; [16]
  duplex melting temperature: 60.34 ± 0.13 °C
[1]; [17]
  duplex melting temperature: 50.73 ± 0.22 °C
[1]; [18]
  duplex melting temperature: 68.82 ± 0.18 °C
[1]; [19]
  duplex melting temperature: 61.44 ± 0.11 °C
[1]; [20]
  duplex melting temperature: 51.73 ± 0.34 °C
[1]; [21]
  duplex melting temperature: 69.71 ± 0.33 °C
[1]; [22]
  duplex melting temperature: 62.27 ± 0.073 °C
[1]; [23]
  duplex melting temperature: 52.86 ± 0.13 °C
[2]; [24]
  duplex formation free energy ΔG50: -12.4 ± 0.13 kcal/mol
[2]; [25]
  duplex formation free energy ΔG50: -10.63 ± 0.058 kcal/mol
[2]; [26]
  duplex formation free energy ΔG50: -8.447 ± 0.02 kcal/mol
[3]; [24]
  duplex formation enthalpy ΔH: -79.2 ± 2.6 kcal/mol
[3]; [25]
  duplex formation enthalpy ΔH: -76.1 ± 1.9 kcal/mol
[3]; [26]
  duplex formation enthalpy ΔH: -74 ± 2.4 kcal/mol
[4]; [24]
  duplex formation entropy ΔS: -207 ± 7.6 cal/mol/K
[4]; [25]
  duplex formation entropy ΔS: -203 ± 5.8 cal/mol/K
[4]; [26]
  duplex formation entropy ΔS: -203 ± 7.4 cal/mol/K

## GGTTGCGGTGGCCAAC
[1]; [6]
  duplex melting temperature: 72.47 ± 0.19 °C
[1]; [9]
  duplex melting temperature: 74.78 ± 0.39 °C
[1]; [10]
  duplex melting temperature: 59.24 ± 0.17 °C
[1]; [12]
  duplex melting temperature: 75.96 ± 0.48 °C
[1]; [13]
  duplex melting temperature: 59.89 ± 0.26 °C
[1]; [14]
  duplex melting temperature: 53.12 ± 0.24 °C
[1]; [15]
  duplex melting temperature: 76.87 ± 0.44 °C
[1]; [16]
  duplex melting temperature: 60.61 ± 0.24 °C
[1]; [17]
  duplex melting temperature: 53.68 ± 0.31 °C
[1]; [18]
  duplex melting temperature: 77.98 ± 0.31 °C
[1]; [19]
  duplex melting temperature: 61.52 ± 0.21 °C
[1]; [20]
  duplex melting temperature: 54.3 ± 0.32 °C
[1]; [21]
  duplex melting temperature: 78.76 ± 0.29 °C
[1]; [22]
  duplex melting temperature: 62.17 ± 0.44 °C
[1]; [23]
  duplex melting temperature: 54.47 ± 0.31 °C
[2]; [24]
  duplex formation free energy ΔG50: -14.7 ± 0.36 kcal/mol
[3]; [24]
  duplex formation enthalpy ΔH: -83.4 ± 4.7 kcal/mol
[4]; [24]
  duplex formation entropy ΔS: -213 ± 13 cal/mol/K
